Reference: PMC3281842, “Crystal Structure of TDRD3 and Methyl-Arginine Binding Characterization of TDRD3, SMN and SPF30” (PLoS ONE, 2012)
Square brackets hold non-standard residues; d marks the D form. Ends that are not written are not given here. Arg(Me2a) = CN(C)C(=N)NCCC[C@H](N)C(=O)O; Arg(Me2s) = CN=C(NC)NCCC[C@H](N)C(=O)O; Arg(Me) = CNC(=N)NCCC[C@H](N)C(=O)O

T1: SPF30 (aa 65–150) (human, UniProt O75940 65-150)
T1 construct: Splicing factor 30 kDa (SPF30, SMNDC1), human, residues 65-150, covers the Tudor domain; cloned into the pET28-MHL vector; also called Splicing factor 30 kDa; SMNDC1; source: E. coli BL21 (DE3), purified (Ni-NTA, size exclusion chromatography)
T1 sequence (looked up): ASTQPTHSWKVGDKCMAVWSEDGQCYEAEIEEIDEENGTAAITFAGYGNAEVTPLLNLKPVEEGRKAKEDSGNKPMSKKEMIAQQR

T2: SND1 (aa 650–910) (UniProt Q7KZF4 650-910)
T2 construct: SND1, residues 650-910, extended Tudor domain; also called extended Tudor domain of SND1
T2 sequence (looked up): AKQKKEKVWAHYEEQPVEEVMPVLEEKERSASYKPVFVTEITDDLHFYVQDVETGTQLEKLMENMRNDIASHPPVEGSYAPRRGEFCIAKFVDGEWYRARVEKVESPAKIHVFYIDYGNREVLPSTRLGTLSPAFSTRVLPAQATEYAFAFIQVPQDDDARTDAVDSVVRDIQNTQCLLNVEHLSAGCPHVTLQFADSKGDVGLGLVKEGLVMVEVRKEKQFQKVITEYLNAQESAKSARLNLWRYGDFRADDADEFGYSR

B1: PIWIL1_R4me2a peptide (TGRme2aARARA) (peptide)
peptide: TG[Arg(Me2a)]ARARA
notes: N-terminal GAR motif stretch of PIWIL1, R4 asymmetrically dimethylated; also called PIWIL1_R4me2a peptide of the ITC measurement; source: synthetic peptide (Tufts University Core Services)
B2: PIWIL1-R4me1 (peptide)
peptide: TG[Arg(Me)]ARARARGRARGQE
modifications: also: fluorescein label, position not given here
notes: N-terminal GAR motif stretch of PIWIL1, R4 monomethylated; also called monomethylated PIWIL1 peptide; source: synthetic peptide (Tufts University Core Services)
B3: PIWIL1-R4un (peptide)
peptide: TGRARARARGRARGQE
modifications: also: fluorescein label, position not given here
notes: N-terminal GAR motif stretch of PIWIL1, unmethylated; also called unmethylated PIWIL1 peptide; source: synthetic peptide (Tufts University Core Services)
B4: PIWIL1-R4me2s (peptide)
peptide: TG[Arg(Me2s)]ARARARGRARGQE
modifications: also: fluorescein label, position not given here
notes: N-terminal GAR motif stretch of PIWIL1, R4 symmetrically dimethylated; also called symmetrical dimethylated peptide of the PIWIL1 protein; source: synthetic peptide (Tufts University Core Services)
B5: PIWIL1-R4me2a (peptide)
peptide: TG[Arg(Me2a)]ARARARGRARGQE
modifications: also: fluorescein label, position not given here
notes: N-terminal GAR motif stretch of PIWIL1, R4 asymmetrically dimethylated; also called asymmetrical dimethylated PIWIL1 peptide; source: synthetic peptide (Tufts University Core Services)
B6: H3R2me2a (peptide)
peptide: A[Arg(Me2a)]TKQTARKSY
modifications: also: fluorescein label, position not given here
notes: histone H3 N-terminal tail; C-terminal tyrosine printed at the end of the peptide; also called histone H3R2 peptide, asymmetrically dimethylated; source: synthetic peptide (Tufts University Core Services)
B7: H3R2me1 (peptide)
peptide: A[Arg(Me)]TKQTARKSY
modifications: also: fluorescein label, position not given here
notes: histone H3 N-terminal tail; C-terminal tyrosine printed at the end of the peptide; also called histone H3R2 peptide, monomethylated; source: synthetic peptide (Tufts University Core Services)
B8: PGM(SmB214SD) (peptide)
peptide: PPGM[Arg(Me2s)]PPPPG
modifications: also: fluorescein label, position not given here
notes: PGM motif stretch of the splicing protein SmB; also called sDMA PGM motif peptide from SmB; source: synthetic peptide (Tufts University Core Services)
B9: PGM(SmB221SD) (peptide)
peptide: PPGM[Arg(Me2s)]GPPP
modifications: also: fluorescein label, position not given here
notes: as for B8
B10: PGM(SmB165SD) (peptide)
peptide: YPPG[Arg(Me2s)]GGPPP
modifications: also: fluorescein label, position not given here
notes: as for B8
B11: H3R2me2s (peptide)
peptide: A[Arg(Me2s)]TKQTARKSY
modifications: also: fluorescein label, position not given here
notes: histone H3 N-terminal tail; C-terminal tyrosine printed at the end of the peptide; also called histone H3R2 peptide, symmetrically dimethylated; source: synthetic peptide (Tufts University Core Services)
B12: SmD3RSDMA (peptide)
peptide: GGRG[Arg(Me2s)]GRG
modifications: also: fluorescein label, position not given here
notes: GAR motif peptide named after SmD3; also called SmD3 peptide; source: synthetic peptide (Tufts University Core Services)

What follows are binders tested against T3, TDRD3 (aa 520–633) (human, UniProt Q9H7E2 520-633) (assay: ITC; 20 mM Tris pH 8.0, 200 mM NaCl; 25°C; one-site binding model). Details: both partners purified.
T3 construct: cloned into the pET28-MHL vector; also called Tudor domain-containing protein 3; source: E. coli BL21 (DE3), purified (Ni-NTA, size exclusion chromatography)

B1: binds.

Each binder was assayed against T1, SPF30 (aa 65–150) (assay: fluorescence polarisation; fluorescein-labeled peptides; 20 mM Tris pH 7.5, 50 mM NaCl, 1 mM DTT, 0.01% Triton X-100; 25°C; one-site binding model; Kd the average of three independent measurements). Details: both partners purified.

B2 and B3 cannot be ordered by Kd: over 500 µM for the first, over 500 µM for the second.

B4 and B5 cannot be ordered by Kd: over 200 µM for the first, over 400 µM for the second.

The binders below were run against T4, SMN (aa 80–170) (human, UniProt Q16637 80-170) in the same assay as above. Details: both partners purified.
T4 construct: Survival motor neuron protein (SMN), human, residues 80-170, covers the Tudor domain; cloned into the pET28-MHL vector; also called Survival motor neuron protein; source: E. coli BL21 (DE3), purified (Ni-NTA, size exclusion chromatography)
T4 sequence (Q16637 80-170): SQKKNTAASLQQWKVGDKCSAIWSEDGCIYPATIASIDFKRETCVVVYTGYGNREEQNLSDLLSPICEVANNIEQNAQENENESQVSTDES

B6 and B2 cannot be ordered by Kd: over 200 µM for the first, over 150 µM for the second.

B7 and B3 cannot be ordered by Kd: over 300 µM for the first, over 300 µM for the second.

Compared with B8, B4 is lower in Kd: over 400 µM for the first, 34 ± 2 µM for the second.

B9 and B10 cannot be ordered by Kd: over 500 µM for the first, over 300 µM for the second.

Compared with B11, B12 is lower in Kd: over 150 µM for the first, 94 ± 4 µM for the second.

Binder B5 has a Kd of 97 ± 3 µM.

What follows are binders tested against T2, SND1 (aa 650–910) in the same assay as above. Details: both partners purified.

B6 and B7 cannot be ordered by Kd: over 300 µM for the first, over 300 µM for the second.

Going from B10 to B12, the Kd falls from over 500 µM to 56 ± 8 µM.

Each binder was assayed against T3, TDRD3 (aa 520–633) in the same assay as above. Details: both partners purified.

B2 and B3 cannot be ordered by Kd: over 500 µM for the first, over 500 µM for the second.

B4 and B12 cannot be ordered by Kd: over 300 µM for the first, over 400 µM for the second.

In the case of B5, the Kd is reported as over 150 µM.

The binders below were run against T5, SMN construct covering only the Tudor domain (residues 82–147) (human, UniProt Q16637 82-147) in the same assay as above. Details: both partners purified.
T5 construct: Survival motor neuron protein (SMN), human, residues 82-147, only the Tudor domain; also called SMN Tudor domain; source: E. coli BL21 (DE3), purified (Ni-NTA, size exclusion chromatography)
T5 sequence (Q16637 82-147): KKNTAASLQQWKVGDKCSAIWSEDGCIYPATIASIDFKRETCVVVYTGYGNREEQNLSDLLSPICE

B4 gave a Kd of 46 µM.
